Values of other authors in publication PMC3575409, “Identification of a Novel Protein-Protein Interaction Motif Mediating Interaction of GPCR-Associated Sorting Proteins with G Protein-Coupled Receptors” (PLoS ONE, 2013).

System: GST-fused ADRB1 C-tail
Details: truncated form of GASP-1, amino-acids 898 to 1395; ref [10]; cited from earlier work
Excerpt: This discrepancy is most likely due to the fact that we used full-length GASPs to perform our experiments, while Heydorn and collaborators used a truncated form of GASP-1, corresponding to amino-acids 898 to 1395. When we performed GST-pull down experiments with a similar fragment of GASP-1 (corresponding to amino acids 924 to 1395), only 5% ...

B1: amino-acids 898 to 1395: truncated form of GASP-1 used by Heydorn and collaborators (protein, UniProt Q5JY77 898-1395, looked up, fragment)
chain: ESETEEETIFGSWFWDGKEVSEEAGPCCVSKPEDDEEMIVESWFWSRDKAIKETGTVATCESKPENEEGAIVGSWFEAEDEVDNRTDNGSNCGSRTLADEDEAIVGSWFWAGDEAHFESNPSPVFRAICRSTCSVEQEPDPSRRPQSWEEVTVQFKPGPWGRVGFPSISPFRFPKEAASLFCEMFGGKPRNMVLSPEGEDQESLLQPDQPSPEFPFQYDPSYRSVQEIREHLRAKESTEPESSSCNCIQCELKIGSEEFEELLLLMEKIRDPFIHEISKIAMGMRSASQFTRDFIRDSGVVSLIETLLNYPSSRVRTSFLENMIRMAPPYPNLNIIQTYICKVCEETLAYSVDSPEQLSGIRMIRHLTTTTDYHTLVANYMSGFLSLLATGNAKTRFHVLKMLLNLSENLFMTKELLSAEAVSEFIGLFNREETNDNIQIVLAIFENIGNNIKKETVFSDDDFNIEPLISAFHKVEKFAKELQGKTDNQNDPEGDQEN
For B1, the “interaction of GASP-1 with ADRB1 C-tail” value is listed as “low interaction”.
